Assay results taken from the supplement of paper PMC12764529.
± gives the half width of the 95% confidence interval.

Test: folding stability dG unfold from chymotrypsin proteolysis; higher = more stable
Procedure, shortened: (§1)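 Bayesian fitting of sequencing counts gave K50 for each design. Unfolding free energy followed by setting this against a sequence-predicted unfolded-state K50 and a shared folded-state K50, either per protease or with trypsin and chymotrypsin combined. The designs, under 80 residues and lacking cysteine, were digested in a PA-tagged cDNA display format at 11 threefold-diluted protease concentrations and without protease, and only those with AlphaFold2 dimer inter-PAE above 15 were kept.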

Row | Sequence | folding stability dG unfold
1 | SAGGSAGGSAGGSTITLRIEGLSKEEIEELARKLGAKVVSFDEKNKTVTIELPPGAKLLSAGGSAGGSAGGS [r4_3_TrROS_Hall] | 2.19 ± 0.044 kcal/mol
2 | SAGGSAGGSAGKKKKKPKPIVLVIKVKTKEEAEKLAEKLKELGFKVEIVEKKDGYLVIKLSAGGSAGGSAGG [r17_323_TrROS_Hall] | 3.8 ± 0.15 kcal/mol
3 | SALEELLKELAEKLGYPYTVLEIKKEENTYKMVIKLTKEGTPVIVDVEIEFPSSDPNVYKVKIKKIEEPSAG [r14_387_JUSTAS] | 3.603 ± 0.027 kcal/mol
4 | SAGKSKPILVEITFPNGEKAKVLAVEFPNTVYVFAVVTSKDGSKYLVEAIIDVSPTKIKIFTKSYPLESAGG [r19_385_TrMRF] | 4.1 ± 0.043 kcal/mol
5 | SASVTTLTFTVTYPGGETETFTVTVPNLTEEEAKALAEKLAEEIQEKSKKPGVKVEVSITRYPADDPALSAG [r14_207_JUSTAS] | 4.13 ± 0.21 kcal/mol
6 | SAGSVEIKESSLPDSTIITITIPYTSPEEAPERIERLLKELGLSENVQVIEVKYEPSPPVVTVKIKIESAGG [r19_186_JUSTAS] | 3.21 ± 0.09 kcal/mol
7 | SAGGKTIEVWFLFPPGMPPEEVASTIAKLLPPGFKIDVEILEVQPDPGGEDYIIFKATIYYPDDGQPISAGG [r13_12_TrROS] | 4.68 ± 0.16 kcal/mol
8 | SAPPPVQTLTLTVYDPETGRLVKIEVTRRPDGTLEVRVEVVDLETNEVTTETITLPGLTLDELLKLLEEASA [r9_618_TrROS_Hall] | 4.02 ± 0.16 kcal/mol
9 | SAGGSAGMMATKPVEVEVEIPPDDPEAAKERVEAEIKAAFPGPVEVETTSYDPEKGLLKVKVVIKKSAGGSA [r15_1024_JUSTAS] | 0.0964 ± 0.19 kcal/mol
10 | SAGGSAGGSAGGMTTVTTLETRPLPDGTTVTREVVTDENGTVVSTTVSRVSPEGVVTAESAGGSAGGSAGGS [r10_1014_JUSTAS] | 0.97 ± 0.025 kcal/mol
11 | SAGMTITTTTPAEAAALAEELAKKNPVLNVTITVVDPETGTVTTIPFAVPAPLPRPYFDPETGEVTLEGSAG [r5_870_TrMRF] | 0.193 ± 0.18 kcal/mol
12 | SLSEEELKKKLEELKKKLKPPKPKVKKVKVKIKNKETNEEIEEEVEIVETPDTVYIYNKKTGKLFKFKIKSA [r9_548_TrROS_Hall] | 1.95 ± 0.24 kcal/mol
13 | SASPDAPVEVVVSLRELRERIEAEHPGRPVTPEDVAALAREELEAAGRPLEDLRVEAVDEATGTVRLVASAG [r14_303_JUSTAS] | 1.29 ± 0.019 kcal/mol
14 | SAGGSSVTTTVSEETLPDGLRLLTTTTTTTTVPGKPDLRITTVTTTALDPVTGETTAVGTSTTVVAPSAGGS [r8_65_JUSTAS] | 0.796 ± 0.027 kcal/mol
15 | SAGGSAGGSAGEVTVPAVVPPDAVPEVVEAVERLGARAEVEWDPETGLYRVNITFDGEVGSAGGSAGGSAGG [r11_1043_TrMRF] | 0.901 ± 0.06 kcal/mol
16 | SMTLTETKVLTTETLSGEEFAKRSGVPVEEIRKSGVKYNVTVTPVEVTYYDPETGKTYKRTSTTVTITPESA [r9_382_JUSTAS] | 0.842 ± 0.11 kcal/mol
17 | SAGGMPPVKVPVKVTISMKDPKTGKTFTVPVEKVATSEEDLEEIKKEVEELAKELKEKGYKEIEIKIESAGG [r13_360_JUSTAS] | 3.14 ± 0.08 kcal/mol
18 | SAGDNYREVEYTLKLKNPKGERKLKVKVYYPKGGMFIKIEWPDNGRKIDIPFKSPEDAEETIKDLLDKLSAG [r5_480_TrROS] | 2.25 ± 0.13 kcal/mol
19 | SAGGSAGGSAGMMKVRIRVDGKEIEIEVPPGMTVDEIAERLKKEFGKDIEIEVEEVKPEPSAGGSAGGSAGG [r11_805_TrROS_Hall] | 3.17 ± 0.1 kcal/mol
20 | SAGGMLEVTEEPLELGDRPVTRTTITLPDGTVVTVTTEAGTGAMTVTYPDGTTKTVTSEEDALAALLSAGGS [r8_168_JUSTAS] | 1.19 ± 0.051 kcal/mol
21 | SAGGSAGGMSPDAKPIGEKTDESPGPEKVTTTTLKSPDPSLTYTVTTTTVGSTTTTTTTAVPVLSAGGSAGG [r6_923_JUSTAS] | 0.134 ± 0.4 kcal/mol

Row | Sequence | folding stability dG unfold
22 | SAGGGIEREVAPDEVVEIPIVRIEGDVAREETIEIRLPAGARIEPSGDKIRLWFPEEGKVLEIPLTELSAGG [r13_275_TrMRF] | -0.079 ± 0.059 kcal/mol
23 | SAGGSAGGSMVTIPTGTEEEVEKVIAELEKKGLKPKKVEKEGNKVTVEFPDGTKVELIIEPGKSAGGSAGGS [r20_93_JUSTAS] | 2.36 ± 0.14 kcal/mol
24 | SAGWFISIKYKDPPTGRKRKISIPIPPGDPWLKELGFPSLDGLAKWLAPEMREEGHDVKDVKVEIMPPKSAG [r5_722_TrROS] | 4.16 ± 0.059 kcal/mol
25 | SAGGSAGGPEYQMIPVKNVEIDEFDPNDGNVTIKFKGNGQEIKLPPDGIQSIEISPDQGWIYIRSAGGSAGG [r6_315_TrROS] | -0.365 ± 0.22 kcal/mol
26 | SAGGSMITFTVTPDATVEFPDGVTVTLIPGEGKWVATAGEKEIEAPYTPLPDDTYVVTLELPEGIAASAGGS [r16_245_JUSTAS] | -0.101 ± 0.27 kcal/mol
27 | SAGGGSMFSTIYDPNSNNSIEAPLLSIREEDGRPTIEYQLPDGTRVTRPLSELGAFTLTGGAGSLTLPSAGG [r13_211_JUSTAS] | 0.552 ± 0.14 kcal/mol
28 | SFIRKDPDGTYVIMGRMPPNMPIEEFLENLPGFKIKDVEYQPDPENGYWYFTLVITPRGKVKIDWVPMGDSA [r9_238_TrROS] | 1.91 ± 0.11 kcal/mol
29 | SAGGSAGGSAGAKVKVFKVRAEVKLTRTADGELVAEVTEVEIEEVEVEVRPPPPPPLPPASAGGSAGGSAGG [r11_381_TrROS_Hall] | 3.11 ± 0.14 kcal/mol
30 | SAGGSAGGSPNTIEIWIQIPPGDPEKVEEIAKKLRDEGFKDIKVDEVHRNPDDSYYVEIKITVSAGGSAGGS [r12_91_TrROS] | 1.12 ± 0.025 kcal/mol
31 | SAGMKKKITVKVKVKTEEEAEKLAEELEKELGLKVTVEKNEETGVYTITVEVSPEAVEALKKAGVEIESAGG [r19_306_TrROS_Hall] | 1.92 ± 0.083 kcal/mol
32 | SAGGSAGGSAPKEVVVLDLKISPVPDPRYFPAEFTVYIPENGKPFPVTAVFDPEGGEVTIGSAGGSAGGSAG [r3_1_TrMRF] | 3.23 ± 0.1 kcal/mol
33 | SAGSVTVTETKTEGDKETITMTRPETGETVEEKITKKNGKVKVTKTYYSPSGVKLGSSEKVLSESELLLSAG [r5_308_JUSTAS] | -0.195 ± 0.33 kcal/mol
34 | MKKVKVTITITVPEEDKEKVKELIEKLKEAVPNVKVTSVEFDEKTGKITIVVEMTEEELEELKKALKEALES [r1_443_TrROS_Hall] | 1.47 ± 0.036 kcal/mol
35 | SSPMTVEELLERHPNLLVVRLPDGTVYLFDPEKETLYTVTPGTGEVTVTPLSLEELLALLPAAGHEVLPLSA [r9_721_JUSTAS] | 2.14 ± 0.092 kcal/mol
36 | SAGGSAGGSGTSTKINILLPVKPGETVKLKVEVNLNSKKVLFYVDVKKNPVGNYLSATFTVTGSAGGSAGGS [r12_136_TrMRF] | 4.42 ± 0.12 kcal/mol
37 | SAGGSAGGSAMKIVEWNEETGELTIELPDGTKITLKVENGEITEVKVEPLPPVPPDLPELKSAGGSAGGSAG [r3_406_TrROS_Hall] | 2.45 ± 0.16 kcal/mol
38 | SAGGSAGGSAKPLTVEEIIKKLNLPPNVEIVDVKVDYGKTENKPIIVLVLKTKDKPYLPVFASAGGSAGGSA [r18_354_TrMRF] | 1.91 ± 0.065 kcal/mol
39 | SAGGMIEIEYNPDQGYFRITVWPMNPKNGKPKSKEIPIPFEGDPEEALDKVKDLIDDHPGYHVDIEPYSAGG [r13_284_TrROS] | 1.27 ± 0.13 kcal/mol
40 | SAGGSAGGSAGMVIERPDDKVLVILGYDPEKGKVYVAVYDPKTGEVRFKEFDNLEDEIKDSAGGSAGGSAGG [r17_300_TrMRF] | 1.76 ± 0.08 kcal/mol
41 | SAGGLKDILKELGFPIKSVTVQPMPMPNGMPMRTVSITFENPNGPKFEIEVMVMPNGEVMIDIEWVKPSAGG [r13_818_TrROS] | 2.69 ± 0.11 kcal/mol
42 | SAGGMPTTSSSAVKLDGGSDSVTTTTLPDGSRVVYIVSSDGKVYKATVTGGTTTWTEVKTVPPAELSSAGGS [r16_48_JUSTAS] | 2.406 ± 0.018 kcal/mol

Test: folding stability dG unfold (combined trypsin and chymotrypsin); higher = more stable
Procedure, shortened: as §1

Row | Sequence | folding stability dG unfold
43 | SAGGSAGGSAGGSTITLRIEGLSKEEIEELARKLGAKVVSFDEKNKTVTIELPPGAKLLSAGGSAGGSAGGS [r4_3_TrROS_Hall] | 2.09 ± 0.084 kcal/mol
44 | SAGGSAGGSAGKKKKKPKPIVLVIKVKTKEEAEKLAEKLKELGFKVEIVEKKDGYLVIKLSAGGSAGGSAGG [r17_323_TrROS_Hall] | 3.39 ± 0.18 kcal/mol
45 | SALEELLKELAEKLGYPYTVLEIKKEENTYKMVIKLTKEGTPVIVDVEIEFPSSDPNVYKVKIKKIEEPSAG [r14_387_JUSTAS] | 3.49 ± 0.072 kcal/mol
46 | SAGKSKPILVEITFPNGEKAKVLAVEFPNTVYVFAVVTSKDGSKYLVEAIIDVSPTKIKIFTKSYPLESAGG [r19_385_TrMRF] | 3.64 ± 0.081 kcal/mol
47 | SASVTTLTFTVTYPGGETETFTVTVPNLTEEEAKALAEKLAEEIQEKSKKPGVKVEVSITRYPADDPALSAG [r14_207_JUSTAS] | 4.2 ± 0.18 kcal/mol
48 | SAGSVEIKESSLPDSTIITITIPYTSPEEAPERIERLLKELGLSENVQVIEVKYEPSPPVVTVKIKIESAGG [r19_186_JUSTAS] | 2.99 ± 0.12 kcal/mol
49 | SAGGKTIEVWFLFPPGMPPEEVASTIAKLLPPGFKIDVEILEVQPDPGGEDYIIFKATIYYPDDGQPISAGG [r13_12_TrROS] | 4.26 ± 0.25 kcal/mol
50 | SAPPPVQTLTLTVYDPETGRLVKIEVTRRPDGTLEVRVEVVDLETNEVTTETITLPGLTLDELLKLLEEASA [r9_618_TrROS_Hall] | 3.65 ± 0.16 kcal/mol
51 | SAGGSAGMMATKPVEVEVEIPPDDPEAAKERVEAEIKAAFPGPVEVETTSYDPEKGLLKVKVVIKKSAGGSA [r15_1024_JUSTAS] | 0.256 ± 0.33 kcal/mol
52 | SAGGSAGGSAGGMTTVTTLETRPLPDGTTVTREVVTDENGTVVSTTVSRVSPEGVVTAESAGGSAGGSAGGS [r10_1014_JUSTAS] | 0.623 ± 0.055 kcal/mol
53 | SAGMTITTTTPAEAAALAEELAKKNPVLNVTITVVDPETGTVTTIPFAVPAPLPRPYFDPETGEVTLEGSAG [r5_870_TrMRF] | 0.779 ± 0.11 kcal/mol
54 | SLSEEELKKKLEELKKKLKPPKPKVKKVKVKIKNKETNEEIEEEVEIVETPDTVYIYNKKTGKLFKFKIKSA [r9_548_TrROS_Hall] | 1.73 ± 0.29 kcal/mol
55 | SASPDAPVEVVVSLRELRERIEAEHPGRPVTPEDVAALAREELEAAGRPLEDLRVEAVDEATGTVRLVASAG [r14_303_JUSTAS] | 0.907 ± 0.035 kcal/mol
56 | SAGGSSVTTTVSEETLPDGLRLLTTTTTTTTVPGKPDLRITTVTTTALDPVTGETTAVGTSTTVVAPSAGGS [r8_65_JUSTAS] | 0.63 ± 0.086 kcal/mol
57 | SAGGSAGGSAGEVTVPAVVPPDAVPEVVEAVERLGARAEVEWDPETGLYRVNITFDGEVGSAGGSAGGSAGG [r11_1043_TrMRF] | 0.604 ± 0.07 kcal/mol
58 | SMTLTETKVLTTETLSGEEFAKRSGVPVEEIRKSGVKYNVTVTPVEVTYYDPETGKTYKRTSTTVTITPESA [r9_382_JUSTAS] | 0.686 ± 0.073 kcal/mol
59 | SAGGMPPVKVPVKVTISMKDPKTGKTFTVPVEKVATSEEDLEEIKKEVEELAKELKEKGYKEIEIKIESAGG [r13_360_JUSTAS] | 2.87 ± 0.1 kcal/mol
60 | SAGDNYREVEYTLKLKNPKGERKLKVKVYYPKGGMFIKIEWPDNGRKIDIPFKSPEDAEETIKDLLDKLSAG [r5_480_TrROS] | 2.13 ± 0.22 kcal/mol
61 | SAGGSAGGSAGMMKVRIRVDGKEIEIEVPPGMTVDEIAERLKKEFGKDIEIEVEEVKPEPSAGGSAGGSAGG [r11_805_TrROS_Hall] | 3.39 ± 0.22 kcal/mol
62 | SAGGMLEVTEEPLELGDRPVTRTTITLPDGTVVTVTTEAGTGAMTVTYPDGTTKTVTSEEDALAALLSAGGS [r8_168_JUSTAS] | 2.02 ± 0.094 kcal/mol
63 | SAGGSAGGMSPDAKPIGEKTDESPGPEKVTTTTLKSPDPSLTYTVTTTTVGSTTTTTTTAVPVLSAGGSAGG [r6_923_JUSTAS] | 0.261 ± 0.1 kcal/mol
